Experimental data reported in patent publication US20240352438A1, “MEANS AND METHODS FOR DETOXIFYING OCHRATOXIN A” (DSM Austria GmbH, priority 2021, published 2024).

Experiments:
[1] = OTA detoxification activity assay (specific activity, fluorescence reduction ex/em 390/450 nm); format: biochemical; settings: SEQ ID NO: 1 = 100%
Procedure, shortened: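 Recombinant enzyme preparation with 200 ng/mL OTA in 100 mM sodium phosphate, at pH 6.0 and pH 7.5, 37° C. Degradation followed as the fall in fluorescence at ex/em 390/450 nm. Specific activity taken from the initial linear slope; one unit degrades 1 μmol OTA per min at a starting OTA of […].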

[2] = Enzymatic activity comparison: activity remaining after 65° C. for 10 min at pH 6.0, relative to SEQ ID NO: 1; format: physicochemical
Description: To compare the temperature behavior and thermostability of selected enzymes to one another, enzyme was incubated at 65° C. for 10 min at pH 6.0. The enzymatic activity remaining after incubation was compared to the remaining activity of the enzyme of SEQ ID NO: 1 after incubation, the latter being set to 100%, see Table 16.

[3] = Thermostability assay: residual OTA detoxification activity after 10 min incubation at 45-99° C. (T50); format: physicochemical; settings: 0.1 mg/mL protein in 20 mM Tris-HCl pH 7.5, residual OTA detoxification activity relative to 4° C. reference aliquot
Description: Stability was determined in terms of thermostability. Notwithstanding, a person having skill in the art is aware that stability towards high temperature (e.g. more than 30° C.) often correlates with stability towards other non-standard conditions such as stability towards acidic or basic pH (e.g. below pH 6.5 or above pH 7.5, respectively), towards elevated salt concentrations, organic solvents or drying.
To determine the kinetic stability of the produced enzymes, thermostability assays were performed. To this end, purified protein samples were diluted to a protein concentration of 0.1 mg/mL in 20 mM Tris-HCl buffer pH 7.5 and aliquots were incubated in a thermocycler for 10 min at either 45, 55, 65, 75, 80, 85, 90, 95 or 99° C. After this incubation, the aliquots were stored at 4° C. until further analysis. A reference aliquot was stored at 4° C. throughout the incubation. Subsequently, all aliquots were assayed for residual OTA detoxification activity using the assay described in Example 3. Residual enzyme activities were calculated relative to the reference aliquot. The temperature range in which 50% of the initial activity was lost after the incubation (T50), in relation to the reference aliquot was determined.

Molecule	Specific OTA detoxification activities in % compared to the enzyme of SEQ ID NO: 1, pH 6.0 [1] [%]	Specific OTA detoxification activities in % compared to the enzyme of SEQ ID NO: 1, pH 7.5 [1] [%]	Enzymatic activity remaining after incubation, compared to SEQ ID NO: 1 (set to 100%) [2] [%]	T50 (temperature at which 50% of the initial activity was maintained) [3] [°C]
156 (protein, exemplary polypeptide) MTTRTRILTAFLSLLAANACAADAAPAAPHTVVLRAARMFDGASGKLVDHPQLTIVGNKIVRIAQGDKAEVPAGAEVVDLGDATLLPGFIDAHVHLSGQSSDNWYGDFFDNMMRFPAEQALYGAYYARITLEAGFTSVRDVGSTDWVALGLRNAIDAGKVPGPRMLVSNYAVGSTGGHADQDPVPPHKLPLAGPLQGVCNGPEECRAAVRYQIKYGANVIKFMPSGGVLSLSDPVDAPELSQDEMNAVIGESHAWGRKVAAHAHGDKAAKMAVAAGVDSIEHGSFIEDDTLRAMKAKNVYLVPTISAVAHVEEKIGTFPPVIAEKGRAAAAHLRQTFRHAVQIGVPIALGTDAGVGAHGSNAREFRYMVENGLTPAQALLAGTANAARLLGTFDRVGTLEAGKLADVVAVPGNPIADITVTERPLFVMKDGVVVRRDAVR	144	109	34	–
157 (protein, exemplary polypeptide) MTTRTRILTAFLSLLAANACAADAAPAAPHTVVLRAARMFDGASGKLVDHPQLTIVGNKIVRIAQGDKAEVPAGAEVVDLGDATLLPGFIDAHVHLSGQSSDNWYGDFFDNMMRFPAEQALYGAYYARITLEAGFTSVRDVGSTDWVALGLRNAIDAGKVPGPRMLVSNYAVGSTGGHADQDPVPPHKLPLAGPLQGVCNGPEECRAAVRYQIKYGANVIKFMPSGGVLSLSDPVDAPELSQDEMNAVIGESHAWGRKVAAHAHGDKAAKMAVAAGVDSIEHGSFIEDDTLRAMKAKNVYLVPTISAIAHVEEKIGTYPPVIAEKGRAAAAHLRQTFRHAVQIGVPIALGTDAGVGAHGSNAREFRYMVENGLTPAQALLAGTANAARLLGTFDRVGTLEAGKLADVVAVPGNPIADITVTERPLFVMKDGVVVRRDAVR	78	63	73	–
158 (protein, exemplary polypeptide) MTTRTRILTAFLSLLAANACAADAAPAAPHTVVLRAARMFDGASGKLVDHPQLTIVGNKIVRIAQGDKAEVPAGAEVVDLGDATLLPGFIDAHVHLSGQSSDNWYGDFFDNMMRFPAEQALYGAYYARITLEAGFTSVRDVGSTDWVALGLRNAIDAGKVPGPRMLVSNYAVGSTGGHADQDPVPPHKLPLAGPLQGVCNGPEECRAAVRYQIKYGANVIKFMPSGGVLSLSDPVDAPELSQDEMNAVIGESHAWGRKVAAHAHGDKAAKMAVAAGVDSIEHGSFIEDDTLRAMKAKNVYLVPTISAIAHVEEKIGTFPPVIAEKGRAAAAHLRQTFRHAVQIGVPIALGTDAAVGAHGSNAREFRYMVENGLTPAQALLAGTANAARLLGTFDRVGTLEAGKLADVVAVPGNPIADITVTERPLFVMKDGVVVRRDAVR	157	92	9	–
159 (protein, exemplary polypeptide) MTTRTRILTAFLSLLAANACAADAAPAAPHTVVLRAARMFDGASGKLVDHPQLTIVGNKIVRIAQGDKAEVPAGAEVVDLGDATLLPGFIDAHVHLSGQSSDNWYGDFFDNMMRFPAEQALYGAYYARITLEAGFTSVRDVGSTDWVALGLRNAIDAGKVPGPRMLVSNYAVGSTGGHADQDPIPPHKLPLAGPLQGVCNGPEECRAAVRYQIKYGANVIKFMPSGGVLSLSDPVDAPELSQDEMNAVIGESHAWGRKVAAHAHGDKAAKMAVAAGVDSIEHGSFIEDDTLRAMKAKNVYLVPTISAAAHVEEKIGTYPPVIAEKGRAAAAHLRQTFRHAVQIGVPIALGTDAGVGAHGSNAREFRYMVENGLTPAQALLAGTANAARLLGTFDRVGTLEAGKLADVVAVPGNPIADITVTERPLFVMKDGVVVRRDAVR	84	93	30	–
23 (protein, exemplary polypeptide) MQYDVAIKNGNVFTGTEFIGKMNIYISNGKISKVSKEDLNAKQEIDAKDMLVMPGLIDAHMHISGLKGGSLLKIMFEKPEYRALRATKWLEKLLLAGFTTVRDCGEPISISLKRAVNEGYIKGPKIIAAGKPITQTFGHGEFSHDIPLEFSISLGFSEICDGTESCIHAARKVLRDGSDFIKIFATGGVLSQRDRPDMPQLSFDEIRAIVNEAEKAGTYVAAHAHGDKGARIAIEAGIKTLEHGSLLKEDTLKLMLEKNISLTPTLTITEIIYKYGKTIGVDEWGLEKIVEVRENLHKVLRKAKELGITIITGTHMGFETGLEDYDIGKNWTEILLLTEVGGLSNEEALRAATYNSAKALGLNSGLIDEGKDADIIVIDGNPLENIKDVSKVVHVIKQGKLEVLDSKIINNY	–	–	–	>95
24 (protein, exemplary polypeptide) MELAIRNGIVFNGKEIIGKTNIYVREGKIVEVSREDHSAKMEIDAKDMFVMPGLIDAHIHLSGIKGGSLLKIMFEKPEYRVLRAAKWLEKLLLAGFTTVRDCGETVSLALKRALNDGIIGGPKVIAAGKPITQTFGHGELSHDVPLEFSKTMSFSEFCDGMESCIHAARKVLRDGADFIKIFATGGVLSQRDRPEHPQLSYEEIRAIVNEAEKVNTYVAAHAHGDRGARIAIEAGVKTLEHGTLLKDETLKLMKEKNVTLTPTLTIQELIFKYGKQIGVDEWGLQKITSVRENIANVVRKAKEYGVTIISGTDLGFETGLEEIDMGKNWMETVLLVERGGLSPIEALRASTYNAAMAIGINAGVIEIGKDADIIIINGDPTLNVREISKITHVVKNGKLTVENKSIKG	–	–	–	>95
25 (protein, exemplary polypeptide) MFDLGIKNGNVFSGKDNLGKTNIYVNNGKIVKISKENLEVRQEIDAKDMFVMPGLIDSHIHLSGIKGGSLLKIMFEKPEYRILRASKWLEKLLLAGFTTVRDCGDPISISLAKGVKDGIIIGPNIIAAGRPITQTFGHGEISHDIPLEFSEVLGFSEICDGVESCIHSARKVLREGSDFIKIFATGGVLSQRDRPENPQLTYEEIKSIVNEAEKIGTYVAAHAHGDKGARIAIEAGIKTLEHGTMLKDDTMKLMIEKDVSLTPTLTIQEVIYKYGKQIGVDEWGLEKITEVRNSISSVVKKAKEYGIRIITGTDLGFETGLSDIDIGKNWVELTLLVERGGLTPKEALQAATYNSALSLRINSGLIDTDRNADIIIIDGDPEENISDIAKIDHVIKNGNIIVEKGKIINYS	–	–	–	>95
26 (protein, exemplary polypeptide) MAFDIALKNGNIFNGKEFIGKSNIYINNGKIVKVSKEELDAKQEIDAMDMFVMPGLIDAHMHISGIKGGSLLKLMFERPEYRTIRATKWLEKLLLAGFTTVRDCGDPISISLAKAVKEGIIKGPNVIAAGRPITQTFGHGELSHDIPLEVSETTGFSEICDGTESCIHAARKVLREGSDFIKIFATGGVLSQRDKPENPQLTYDEIKVIVNEAEKVGTYVAAHAHGDKGARIAIEAGIKTLEHGTLLQDETLKLMIEKKVTLTPTLSIQEVIYRHGKEIGVDEWGLEKIAMVRDSISSVVKKAKDYGITIITGTDLGFETGLEDIDIGKNWMEIVLLIEIGGLTPVEALRAATYNSSIAININSGLIDSGKEADLIIINGNPLEDIKDISKVSYVIKDGKIEVEERKIKN	–	–	–	>95
